# Key:
# [1] = target: Grb2 SH2 (UniProt P62993); experiment: SH2 binding enrichment of the phosphorylated peptide, bacterial display (enrichment ratio); higher = better substrate or ligand; peptides without Tyr show the background
# [2] = target: SHP2-C SH2; experiment: as above
# [3] = target: c-Src SH2; experiment: as above
# [4] = test system: c-Src; experiment: phosphorylation enrichment, bacterial display (enrichment ratio); higher = better substrate or ligand; peptides without Tyr show the background
# [5] = target: Fes (UniProt P07332); experiment: as above
# [6] = target: EPHB2 (UniProt P29323); experiment: as above
# [7] = target: Jak2 (UniProt O60674); experiment: as above
# [8] = target: Hck (UniProt P08631); experiment: as above
# [9] = target: Fyn (UniProt P06241); experiment: as above
# [10] = test system: AncSZ; experiment: as above
# [11] = test system: Fer (mouse); experiment: as above
# [12] = target: MERTK (UniProt Q12866); experiment: as above
# [13] = target: EPHB1 (UniProt P54762); experiment: as above
# [14] = target: FGFR3 (UniProt P22607); experiment: as above
# [15] = test system: c-Abl (mouse); experiment: as above
# [16] = target: FGFR1 (UniProt P11362); experiment: as above
# 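For SH2 binding enrichment of the phosphorylated peptide, bacterial display in this document: peptide library displayed on the E. coli surface as eCPX fusions, selected cells deep-sequenced, score is each peptide's frequency after selection divided by its frequency in the input.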
# 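For phosphorylation enrichment, bacterial display in this document: 11-residue human phosphosite peptides and single-mutation variants displayed on the E. coli surface, counted by deep sequencing, each peptide's frequency after selection divided by its frequency in the unselected input library; frequency after pTyr selection over input frequency; kinase dosed for 20-30% of maximal phosphorylation in three min.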
# MERTK, sequence (Q12866 whole entry, looked up): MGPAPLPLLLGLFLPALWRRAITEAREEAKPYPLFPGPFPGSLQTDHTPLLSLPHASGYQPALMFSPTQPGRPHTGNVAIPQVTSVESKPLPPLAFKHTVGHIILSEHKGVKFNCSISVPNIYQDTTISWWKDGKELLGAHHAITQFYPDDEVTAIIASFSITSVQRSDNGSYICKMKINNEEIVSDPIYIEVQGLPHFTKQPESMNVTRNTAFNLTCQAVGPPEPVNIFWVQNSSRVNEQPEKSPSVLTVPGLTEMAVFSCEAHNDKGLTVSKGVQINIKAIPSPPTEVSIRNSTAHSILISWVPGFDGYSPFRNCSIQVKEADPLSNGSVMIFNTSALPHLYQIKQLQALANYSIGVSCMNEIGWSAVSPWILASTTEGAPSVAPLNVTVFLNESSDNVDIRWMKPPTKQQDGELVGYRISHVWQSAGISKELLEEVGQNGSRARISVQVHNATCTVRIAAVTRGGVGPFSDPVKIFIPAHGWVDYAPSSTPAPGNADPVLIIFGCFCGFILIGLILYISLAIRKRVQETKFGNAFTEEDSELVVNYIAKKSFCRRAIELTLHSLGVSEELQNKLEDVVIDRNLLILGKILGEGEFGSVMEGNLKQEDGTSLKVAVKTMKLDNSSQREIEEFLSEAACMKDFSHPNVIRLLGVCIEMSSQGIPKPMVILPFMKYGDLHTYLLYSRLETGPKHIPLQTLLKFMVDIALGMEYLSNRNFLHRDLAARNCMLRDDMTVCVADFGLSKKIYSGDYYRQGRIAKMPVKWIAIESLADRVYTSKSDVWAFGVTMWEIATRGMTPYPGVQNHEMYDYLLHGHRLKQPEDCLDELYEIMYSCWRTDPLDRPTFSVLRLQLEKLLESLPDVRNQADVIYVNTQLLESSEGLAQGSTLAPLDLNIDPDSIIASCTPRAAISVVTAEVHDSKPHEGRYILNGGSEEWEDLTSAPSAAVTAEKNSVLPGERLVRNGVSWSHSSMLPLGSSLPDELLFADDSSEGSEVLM
# Fes, sequence (P07332 whole entry, looked up): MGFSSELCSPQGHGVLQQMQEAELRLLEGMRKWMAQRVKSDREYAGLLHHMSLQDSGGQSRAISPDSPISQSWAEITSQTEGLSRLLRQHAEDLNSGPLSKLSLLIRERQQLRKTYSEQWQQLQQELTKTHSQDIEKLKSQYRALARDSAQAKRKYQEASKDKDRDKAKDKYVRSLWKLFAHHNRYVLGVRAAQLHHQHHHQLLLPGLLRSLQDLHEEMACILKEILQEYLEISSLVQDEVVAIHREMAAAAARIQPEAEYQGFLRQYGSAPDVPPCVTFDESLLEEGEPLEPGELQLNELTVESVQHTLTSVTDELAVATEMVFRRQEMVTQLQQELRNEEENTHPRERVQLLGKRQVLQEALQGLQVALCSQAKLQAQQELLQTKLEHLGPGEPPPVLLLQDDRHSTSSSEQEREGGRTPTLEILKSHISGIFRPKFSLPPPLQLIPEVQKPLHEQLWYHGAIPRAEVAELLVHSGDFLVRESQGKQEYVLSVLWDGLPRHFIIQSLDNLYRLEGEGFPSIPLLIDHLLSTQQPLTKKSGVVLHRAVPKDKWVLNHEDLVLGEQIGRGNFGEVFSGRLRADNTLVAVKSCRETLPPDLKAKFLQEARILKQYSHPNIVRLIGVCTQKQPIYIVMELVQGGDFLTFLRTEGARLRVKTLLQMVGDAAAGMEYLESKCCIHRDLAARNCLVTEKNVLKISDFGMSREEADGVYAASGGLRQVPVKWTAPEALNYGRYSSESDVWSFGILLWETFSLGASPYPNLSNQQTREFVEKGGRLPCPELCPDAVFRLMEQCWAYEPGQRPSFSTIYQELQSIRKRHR
# Fyn, sequence (P06241 whole entry, looked up): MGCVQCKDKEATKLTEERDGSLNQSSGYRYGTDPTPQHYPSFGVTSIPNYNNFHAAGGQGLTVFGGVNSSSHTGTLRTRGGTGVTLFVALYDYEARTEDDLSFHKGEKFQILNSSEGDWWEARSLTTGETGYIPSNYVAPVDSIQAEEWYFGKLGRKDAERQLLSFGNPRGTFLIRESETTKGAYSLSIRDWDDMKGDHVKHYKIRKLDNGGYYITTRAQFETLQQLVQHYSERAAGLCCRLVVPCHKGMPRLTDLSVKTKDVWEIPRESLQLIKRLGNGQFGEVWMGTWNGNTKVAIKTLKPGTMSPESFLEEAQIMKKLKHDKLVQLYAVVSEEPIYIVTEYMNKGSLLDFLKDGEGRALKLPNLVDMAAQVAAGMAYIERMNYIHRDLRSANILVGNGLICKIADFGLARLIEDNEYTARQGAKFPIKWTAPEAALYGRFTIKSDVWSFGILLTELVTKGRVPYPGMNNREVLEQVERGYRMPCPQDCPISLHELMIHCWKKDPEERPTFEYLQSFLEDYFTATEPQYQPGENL
# Hck, sequence (P08631 whole entry, looked up): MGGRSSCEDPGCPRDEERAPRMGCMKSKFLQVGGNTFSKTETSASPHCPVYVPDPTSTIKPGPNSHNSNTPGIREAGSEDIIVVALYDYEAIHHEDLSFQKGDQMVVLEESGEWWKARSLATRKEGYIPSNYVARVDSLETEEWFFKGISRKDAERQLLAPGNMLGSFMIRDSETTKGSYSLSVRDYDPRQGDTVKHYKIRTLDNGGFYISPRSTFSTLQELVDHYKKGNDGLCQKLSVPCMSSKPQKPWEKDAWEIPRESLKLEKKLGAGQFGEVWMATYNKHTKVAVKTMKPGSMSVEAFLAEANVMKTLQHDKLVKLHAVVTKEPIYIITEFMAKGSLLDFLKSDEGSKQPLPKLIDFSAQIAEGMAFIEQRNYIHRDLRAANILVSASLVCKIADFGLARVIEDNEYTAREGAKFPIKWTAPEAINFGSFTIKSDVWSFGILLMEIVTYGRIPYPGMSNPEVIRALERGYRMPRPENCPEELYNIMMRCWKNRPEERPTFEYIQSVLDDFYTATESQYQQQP
# EPHB2, sequence (P29323 whole entry, looked up): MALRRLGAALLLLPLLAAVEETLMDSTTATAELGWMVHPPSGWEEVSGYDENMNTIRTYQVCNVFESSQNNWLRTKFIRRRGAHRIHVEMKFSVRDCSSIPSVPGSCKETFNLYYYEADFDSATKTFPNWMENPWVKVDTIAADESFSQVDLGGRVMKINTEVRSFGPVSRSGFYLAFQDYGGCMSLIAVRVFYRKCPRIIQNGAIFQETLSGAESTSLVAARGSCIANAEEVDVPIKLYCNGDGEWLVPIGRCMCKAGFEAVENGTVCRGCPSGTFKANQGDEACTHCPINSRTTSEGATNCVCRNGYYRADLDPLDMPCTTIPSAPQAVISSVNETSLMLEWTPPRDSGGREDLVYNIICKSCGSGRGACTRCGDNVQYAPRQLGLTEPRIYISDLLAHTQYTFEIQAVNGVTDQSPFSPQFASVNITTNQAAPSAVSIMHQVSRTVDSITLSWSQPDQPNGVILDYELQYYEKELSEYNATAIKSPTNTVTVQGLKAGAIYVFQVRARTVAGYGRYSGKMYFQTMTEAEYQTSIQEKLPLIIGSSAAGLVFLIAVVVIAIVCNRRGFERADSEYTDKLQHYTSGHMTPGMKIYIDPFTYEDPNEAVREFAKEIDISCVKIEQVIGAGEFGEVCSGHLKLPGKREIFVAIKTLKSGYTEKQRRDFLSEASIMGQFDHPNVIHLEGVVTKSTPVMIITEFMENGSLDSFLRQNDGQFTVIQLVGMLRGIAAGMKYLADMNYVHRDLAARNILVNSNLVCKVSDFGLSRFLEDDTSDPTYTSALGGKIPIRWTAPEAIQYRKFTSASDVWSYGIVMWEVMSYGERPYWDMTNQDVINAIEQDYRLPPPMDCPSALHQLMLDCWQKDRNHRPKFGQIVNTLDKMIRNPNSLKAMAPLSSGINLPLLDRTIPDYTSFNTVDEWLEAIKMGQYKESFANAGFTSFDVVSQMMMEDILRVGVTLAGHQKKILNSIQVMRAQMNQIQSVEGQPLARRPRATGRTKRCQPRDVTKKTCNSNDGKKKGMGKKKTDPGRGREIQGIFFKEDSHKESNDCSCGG
# Jak2, sequence (O60674 whole entry, looked up): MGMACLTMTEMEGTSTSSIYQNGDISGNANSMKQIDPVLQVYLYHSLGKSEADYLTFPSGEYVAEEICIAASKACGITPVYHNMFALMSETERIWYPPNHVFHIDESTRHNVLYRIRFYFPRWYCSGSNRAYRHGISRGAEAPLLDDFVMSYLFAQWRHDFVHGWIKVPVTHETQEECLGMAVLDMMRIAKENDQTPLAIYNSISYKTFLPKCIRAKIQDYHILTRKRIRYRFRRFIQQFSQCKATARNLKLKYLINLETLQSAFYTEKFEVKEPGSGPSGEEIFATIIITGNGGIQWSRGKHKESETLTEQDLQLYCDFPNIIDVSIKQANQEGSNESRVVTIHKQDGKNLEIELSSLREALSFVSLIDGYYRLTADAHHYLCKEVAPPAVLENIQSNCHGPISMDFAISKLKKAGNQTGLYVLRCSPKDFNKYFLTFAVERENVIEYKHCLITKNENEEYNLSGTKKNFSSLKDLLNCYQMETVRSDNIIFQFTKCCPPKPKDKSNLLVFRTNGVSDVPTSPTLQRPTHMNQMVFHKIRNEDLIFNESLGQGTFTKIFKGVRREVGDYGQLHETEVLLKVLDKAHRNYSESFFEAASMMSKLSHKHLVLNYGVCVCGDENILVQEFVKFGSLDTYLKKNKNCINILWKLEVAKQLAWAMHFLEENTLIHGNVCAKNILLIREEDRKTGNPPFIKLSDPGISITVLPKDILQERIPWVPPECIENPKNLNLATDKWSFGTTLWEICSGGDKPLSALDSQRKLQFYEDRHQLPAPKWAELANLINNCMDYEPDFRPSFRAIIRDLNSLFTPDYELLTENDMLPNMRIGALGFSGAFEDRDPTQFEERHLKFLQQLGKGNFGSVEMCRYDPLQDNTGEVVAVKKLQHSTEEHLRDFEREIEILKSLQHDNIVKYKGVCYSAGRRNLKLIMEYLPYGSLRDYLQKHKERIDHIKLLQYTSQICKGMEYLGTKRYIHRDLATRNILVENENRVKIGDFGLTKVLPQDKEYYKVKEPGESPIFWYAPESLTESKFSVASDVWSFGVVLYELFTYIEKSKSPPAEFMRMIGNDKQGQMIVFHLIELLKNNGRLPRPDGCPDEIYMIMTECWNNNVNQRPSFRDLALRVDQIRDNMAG
Sequence,SH2 binding enrichment [1],SH2 binding enrichment [2],SH2 binding enrichment [3],phosphorylation enrichment [4],phosphorylation enrichment [5],phosphorylation enrichment [6],phosphorylation enrichment [7],phosphorylation enrichment [8],phosphorylation enrichment [9],phosphorylation enrichment [10],phosphorylation enrichment [11],phosphorylation enrichment [12],phosphorylation enrichment [13],phosphorylation enrichment [14],phosphorylation enrichment [15],phosphorylation enrichment [16]
RHRSGYVLIAM [EFR3A_Y73],2.09,2.72,1.73,0.284,1.37,0.708,0.79,0.638,0.605,1.31,1.1,0.475,0.307,0.773,0.528,0.737
LVRPPYSYLAL [FOXI1_Y126_S129L],1.06,3.61,3.64,0.498,0.645,0.536,2.16,0.678,0.438,0.602,1.23,2.78,0.63,1.33,0.757,1.62
TRSFDYMEGED [FGF7_Y58_G62E_YF],0.911,0.589,0.618,0.391,1.6,1.04,1.3,0.738,0.649,1.41,0.546,0.435,0.592,0.788,0.754,0.827
RRSKMYLKTRS [LPL_Y329_S325R],0.981,0.647,0.319,1.03,0.709,0.845,0.889,0.602,0.708,0.728,0.514,0.659,0.448,0.571,0.578,0.599
WVFNHYRWFIW [BRCA2_Y2624_I2627F_YF],0.941,0.693,0.587,0.409,1.32,0.636,1.25,0.482,0.462,1.13,0.575,0.463,0.654,0.813,0.898,0.49
LARDMCDKEFF [MET_Y1230_Y1230C_YF],0.778,0.676,0.475,0.715,2.12,0.816,1.34,0.653,0.513,1.79,0.738,0.697,0.61,1.06,1.42,0.492
DDKQPYEKKAE [HMGB1_Y144_A149E],1.09,0.756,0.736,0.43,1.04,0.645,0.921,0.579,0.53,1.12,0.464,0.515,0.516,0.631,0.828,0.529
FKDGQYWIRGR [ACSF3_Y466],0.825,0.359,0.46,0.501,0.862,0.369,0.671,0.614,0.448,0.78,0.387,0.379,0.317,0.482,0.491,0.361
HNLDFYKQTTN [FGFR3_Y648_K650Q_YF],0.874,0.488,0.395,0.409,1.35,0.494,0.793,0.455,0.368,0.948,0.409,0.581,0.623,0.631,0.683,0.581
APTSGYQEFVH [IL4R_Y575],0.826,0.668,2.99,0.419,0.764,0.535,0.611,0.503,0.545,0.741,0.401,0.426,0.36,0.51,0.524,0.539
TFHNTYHSQMR [IL1RAPL1_Y615],0.872,0.597,0.682,0.5,0.567,0.411,0.849,0.434,0.471,0.631,0.466,0.402,0.33,0.489,0.612,0.458
GYAGKYIAMVM [CYP19A1_Y441_C437Y],0.883,0.563,0.732,0.381,0.904,0.483,0.644,0.526,0.489,0.752,0.545,0.479,0.525,0.584,0.862,0.521
VVSMNYRVGAL [BCHE_Y174],0.475,0.771,0.446,0.342,0.802,0.445,0.722,0.43,0.336,0.703,0.333,0.362,0.511,0.534,0.556,0.524
FLQTDDTSQVS [FRMPD1_Y846_Y846D],0.798,0.66,0.457,0.476,1.12,0.648,0.99,0.587,0.481,1.05,0.49,0.622,0.632,0.645,1.07,0.445

# Further lines, with some results ahead:
SH2 binding enrichment [1],SH2 binding enrichment [2],SH2 binding enrichment [3],Sequence,phosphorylation enrichment [4],phosphorylation enrichment [5],phosphorylation enrichment [6],phosphorylation enrichment [7],phosphorylation enrichment [8],phosphorylation enrichment [9],phosphorylation enrichment [10],phosphorylation enrichment [11],phosphorylation enrichment [12],phosphorylation enrichment [13],phosphorylation enrichment [14],phosphorylation enrichment [15],phosphorylation enrichment [16]
1.03,0.766,1.01,IFKAAYFGVFD [SLC25A4_Y191_R188K_YF],0.625,1.21,0.524,1.08,0.504,0.544,1.1,0.534,0.531,0.587,0.65,0.773,0.529
0.858,2.26,0.517,LHAALYKRKLL [TTLL5_Y542_E543K],0.551,0.702,0.527,1.17,0.536,0.464,0.771,0.41,0.502,0.454,0.518,1.24,0.483
0.954,0.606,0.777,HNELYYEAAEH [VANGL1_Y345_E347A],1.79,1.44,1.06,1.16,2.1,1.52,1.56,7.27,5.06,1.12,4.38,0.854,5.49
1.07,0.632,0.551,REVPVYISEDS [SYNM_Y460_G462S],1.56,2.71,1.07,3.51,1.09,0.89,2.34,1.2,1.53,1.3,1.57,2.66,1.16
0.908,0.852,1.06,VFLGAYDRFLP [SLC22A5_Y486_YF],4.15,1.02,1.58,0.976,4,2.96,1.19,1.18,5.13,1.01,0.656,0.782,0.704
0.739,0.516,0.503,AEKPKYQISNI [TJP1_Y1602_N1605S],0.36,0.544,0.376,0.401,0.41,0.372,0.896,0.377,0.333,0.286,0.409,0.54,0.358
0.878,0.897,0.547,TENAGYYFRVS,0.421,2.21,1.02,3.16,0.728,0.407,1.44,0.677,0.714,0.491,1.14,1.04,0.82
0.895,0.717,0.495,TNYRFYLRSLE [MTM1_Y71_L70F],0.41,1.18,0.532,1.09,0.558,0.48,1.19,0.421,0.423,0.619,0.855,0.835,0.438
1.86,1.72,1.51,HIILLYIFLKN [STXBP1_Y411_R406H],0.568,1.6,0.567,1.16,0.501,0.447,1.27,0.495,0.657,0.906,1.08,1.2,0.755
1.78,1.62,1.49,KVALLYKPFFF [POLE_Y100_P99L_YF],1.67,1.17,0.606,1.12,0.82,0.827,1.15,1.39,0.772,0.516,0.704,0.921,0.496
0.812,0.873,1.13,ISDNAYQYMLT [MYH7_Y162],0.975,1.23,0.496,1.17,0.577,0.553,1.51,9.28,2.15,0.659,2.15,0.704,3.44
0.944,0.715,0.503,KPAFSYTSSST [SIM1_Y356],0.484,0.635,0.533,0.528,0.446,0.578,1.01,0.447,0.417,0.467,0.475,0.606,0.415
0.611,0.53,0.581,DYLEKYYKFGC [NNMT_Y24_S29C],0.78,1.28,0.802,1.25,0.539,0.588,1.44,0.563,0.541,0.824,1.14,1.04,0.855
0.77,0.661,0.491,EITSHYRHLLR [ZBTB46_Y14],0.475,0.819,0.443,0.601,0.389,0.319,0.733,0.571,0.392,0.417,0.517,0.733,0.444
0.732,0.725,0.617,DALDNYVVRGV [PCCA_Y473_I475V],0.436,0.823,0.536,0.793,0.394,0.507,0.751,0.387,0.37,0.499,0.466,0.674,0.458
